Laboratory results published in article PMC5425828.

Molecular target: T1, Sco1678 (GntR-His) (Streptomyces coelicolor M145) (UniProt Q9AD89)
T1 sequence: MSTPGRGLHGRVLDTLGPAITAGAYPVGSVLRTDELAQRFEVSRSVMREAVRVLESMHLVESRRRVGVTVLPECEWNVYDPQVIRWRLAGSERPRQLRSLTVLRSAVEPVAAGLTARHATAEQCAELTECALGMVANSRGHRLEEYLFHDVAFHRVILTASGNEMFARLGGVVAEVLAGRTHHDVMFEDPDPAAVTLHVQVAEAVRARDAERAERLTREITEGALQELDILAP
Assay: EMSA
Details: 20 mM Tris/HCl pH 7.5, 50 mM KCl, 10 mM MgCl2, 5% (v/v) glycerol, 0.5 mM EDTA, 25 min at 25 C; 0.2 pmol Cy5 probe, 0.93-4.18 pmol protein; 8% native PAGE, 1x …

With “AGCCAGTGGCGATAAGCGTCGTACTCCTGTTCCTGCCGGCCGGTGCGTGGTGCGGCTATATGACCAGGGACAACAGCAGGACCAGGGCACCGGCGACCACCGAGATGATCGTCTCCATGACGGACCAGGTCTTGATGGTCTGCCCCACGTTCAGCCCGAAGTACTCCTTCACCAGCCAGCTTATCGCCACTGGCT (double strand) [gntZ promoter region]” the binding was “no binding”.

For “AGCCAGTGGCGATAAGGTTGCTGCATCGCACTCTCGCTGTCTGCTGTCTTCGTCGACACCTGATGTCGACGCAACTGAAACTCATTAGTACGACAACTTCAAGAGTCTGTGACGTATAAGTCTGACTTTTTGTTCCCGTGACATGCCCCGTACGCTGAGTGCATGAGCACACCGGGCCGGGGGCTGCACGGCCGCGTACTGGACACCCTCGGCCCCGCGATCACAGCTTATCGCCACTGGCT (double strand) [gntR-gntK intergeneric region]”, the binding was “binds”.
